In PMC8494748:

Target: T1, MS2 bacteriophage coat protein (bacteriophage MS2), P03612
T1 chain: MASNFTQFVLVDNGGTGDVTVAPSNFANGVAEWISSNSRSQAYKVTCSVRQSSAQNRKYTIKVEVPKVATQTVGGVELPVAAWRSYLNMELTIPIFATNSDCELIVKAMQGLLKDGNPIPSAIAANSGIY
Assay: SDS-PAGE with Western blot; 12.5% acrylamide gel, polyclonal anti-MS2 coat protein antibody; BL21(DE3) bacterial lysate; bands of 14 and 28 kDa
Details: remark: other sources report otherwise

B1: MS2 bacteriophage coat protein, P03612 1-130 (natural protein)
chain: MASNFTQFVLVDNGGTGDVTVAPSNFANGVAEWISSNSRSQAYKVTCSVRQSSAQNRKYTIKVEVPKVATQTVGGVELPVAAWRSYLNMELTIPIFATNSDCELIVKAMQGLLKDGNPIPSAIAANSGIY
- stoichiometry N: 2
